Results as given in patent US10196454B2, “Anti-PMEL17 antibodies and immunoconjugates” (GENENTECH, INC., priority 2012, dated 2019).

How the values were obtained:
[1] = molecular target: T1, PMEL17 (Homo sapiens, UniProt P40967); experiment: Species cross-reactivity by FACS, 293S cells stably transfected with gD tagged PMEL17; format: binding; design: gD tag (N); expressed in transfected cells; conditions: 10 μg/ml antibody
T1 sequence (P40967 25-661): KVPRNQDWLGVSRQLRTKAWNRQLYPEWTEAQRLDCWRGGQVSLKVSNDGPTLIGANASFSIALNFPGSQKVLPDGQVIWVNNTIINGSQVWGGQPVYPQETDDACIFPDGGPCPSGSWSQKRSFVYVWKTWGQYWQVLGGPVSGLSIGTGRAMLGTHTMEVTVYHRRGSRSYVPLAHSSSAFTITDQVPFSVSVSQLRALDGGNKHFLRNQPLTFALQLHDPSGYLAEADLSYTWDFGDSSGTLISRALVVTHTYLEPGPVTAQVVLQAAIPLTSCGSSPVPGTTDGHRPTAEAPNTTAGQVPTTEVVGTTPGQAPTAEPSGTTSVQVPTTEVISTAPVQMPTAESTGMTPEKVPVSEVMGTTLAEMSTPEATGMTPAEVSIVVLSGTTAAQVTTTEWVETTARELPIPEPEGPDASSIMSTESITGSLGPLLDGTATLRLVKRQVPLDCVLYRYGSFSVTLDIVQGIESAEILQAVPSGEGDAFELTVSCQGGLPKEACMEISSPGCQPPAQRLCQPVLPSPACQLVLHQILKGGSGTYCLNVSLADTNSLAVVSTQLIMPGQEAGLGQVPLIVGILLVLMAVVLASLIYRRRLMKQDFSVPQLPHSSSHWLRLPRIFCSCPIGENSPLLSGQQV
Method: (§1) Antibody 17A9 was tested to determine if it cross-reacts with PMEL17 from species other than human. […] All of the sequences include the signal sequence except for the cynomolgus monkey PMEL17. Residues that are identical among all four species are indicated by asterisks (*). In the region where the rat sequence has a deletion, residues that are identical among the remaining three species are indicated by a plus (+). Binding to each species of PMEL17 was determined by FACS analysis using 293S cells stably transfected with an N-terminal gD tagged PMEL17 (human, cynomolgus monkey, rat, or mouse PMEL17); stained with 10 μg/ml 17A9 antibody; and detected with R-Phycoerythrin conjugated goat anti-mouse antibody.

[2] = tested on: human PMEL17; experiment: Monoclonal antibody epitope mapping with PMEL17 deletion mutants (immunoblot, FACS); format: binding; conditions: N-terminal deletions by immunoblot, C-terminal deletions in 293 cells by FACS
Method: All the constructs for epitope mapping were made by PCR amplification of each fragment and subcloning into either pRKtkneo vector with an N-terminal gD tag, or pRKtkneo vector with an N-terminal gD tag and a C-terminal GPI anchor. Transfections were performed using FuGene 6 (Roche Applied Science), and empty vector was used as control. Full-length human PMEL17 was subcloned into pRKtkneo vector with an N-terminal gD tag.
A signal sequence and a gD epitope tag were fused to the N-terminal sequence of a series of deletion mutants, which were then expressed in mammalian cells and the lysates analyzed by immuoblotting for reactivity with 17A9 or 77E6. The N-terminal deletions tested included Δ100, Δ255, Δ292, Δ315, Δ444, Δ515, and Δ567.
In addition, C-terminal deletions with an N-terminal gD tag and a C-terminal GPI anchor were transiently transfected into 293 cells and analyzed for antibody binding by FACS. The C-terminal deletions tested included PMEL1725-125, PMEL1725-105, PMEL1725-85, PMEL1725-65, and PMEL1725-45. Finally, a PMEL17 fragment comprising the region from amino acid 515 through the transmembrane domain, but lacking the cytoplasmic region (“Δ515-C”) and a PMEL17 fragment comprising just the cytoplasmic domain with an N-terminal gD tag and a C-terminal GPI anchor were analyzed by immuoblotting for reactivity with 77E6.

[3] = molecular target: T2, mouse PMEL17 (Mus musculus, UniProt Q60696); experiment: Species cross-reactivity by FACS, 293S cells stably transfected with gD tagged PMEL17; format: binding; conditions: 10 μg/ml antibody
T2 construct: gD tag (N); expressed in transfected cells
T2 sequence (Q60696 24-626): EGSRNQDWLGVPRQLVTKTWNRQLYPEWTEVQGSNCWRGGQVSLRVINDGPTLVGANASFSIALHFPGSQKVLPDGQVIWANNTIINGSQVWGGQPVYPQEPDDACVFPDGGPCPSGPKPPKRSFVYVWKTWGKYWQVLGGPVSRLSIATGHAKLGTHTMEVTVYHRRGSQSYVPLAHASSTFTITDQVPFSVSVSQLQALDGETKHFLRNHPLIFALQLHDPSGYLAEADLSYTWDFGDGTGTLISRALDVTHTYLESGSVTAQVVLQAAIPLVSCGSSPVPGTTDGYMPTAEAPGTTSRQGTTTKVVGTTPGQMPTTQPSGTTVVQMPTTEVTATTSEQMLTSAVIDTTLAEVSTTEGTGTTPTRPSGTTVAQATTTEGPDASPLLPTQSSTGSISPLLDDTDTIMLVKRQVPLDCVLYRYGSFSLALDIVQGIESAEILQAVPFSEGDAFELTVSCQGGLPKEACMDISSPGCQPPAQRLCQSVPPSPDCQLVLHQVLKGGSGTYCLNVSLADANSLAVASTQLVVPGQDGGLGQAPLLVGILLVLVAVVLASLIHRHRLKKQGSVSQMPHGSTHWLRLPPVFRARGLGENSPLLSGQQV
Method: as §1

[4] = tested on: rat PMEL17; experiment: as above; format: binding; conditions: 10 μg/ml antibody
Method: as §1

[5] = tested on: cynomolgus monkey PMEL17; experiment: as above; format: binding; conditions: 10 μg/ml antibody
Method: as §1

[6] = tested on: 1300mel melanoma cells; experiment: Internalization of anti-PMEL17 antibody, co-staining with lysosomal marker LAMP1; format: cell-based

cynomolgus monkey PMEL17, sequence (as listed by the source): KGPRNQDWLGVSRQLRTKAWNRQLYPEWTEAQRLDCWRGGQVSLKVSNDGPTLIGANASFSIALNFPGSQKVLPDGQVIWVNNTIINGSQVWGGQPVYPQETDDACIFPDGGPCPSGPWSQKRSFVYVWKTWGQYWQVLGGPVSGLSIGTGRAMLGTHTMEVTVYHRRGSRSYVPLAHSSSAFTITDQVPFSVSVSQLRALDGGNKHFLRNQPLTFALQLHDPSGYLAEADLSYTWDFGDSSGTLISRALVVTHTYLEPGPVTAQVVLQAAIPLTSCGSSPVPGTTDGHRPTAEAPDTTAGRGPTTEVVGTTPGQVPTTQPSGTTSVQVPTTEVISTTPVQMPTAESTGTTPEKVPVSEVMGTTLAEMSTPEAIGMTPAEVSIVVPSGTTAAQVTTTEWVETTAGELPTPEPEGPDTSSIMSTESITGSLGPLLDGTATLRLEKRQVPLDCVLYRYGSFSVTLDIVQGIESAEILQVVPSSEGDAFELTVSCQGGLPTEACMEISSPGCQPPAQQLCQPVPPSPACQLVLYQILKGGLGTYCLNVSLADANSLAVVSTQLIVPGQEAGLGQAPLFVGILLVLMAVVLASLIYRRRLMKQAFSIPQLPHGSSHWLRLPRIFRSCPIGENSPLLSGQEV

B1: 17A9 (antibody, listed as Mus musculus, V domains shown)
VH: EVQLQQSGPELVKPGASMKISCKSSGYSFTRYTMNWVKQSHGKNLEWIGVINPYNGGTVYNQKFKGKATLTVDKSSSTAYMELLSLTSEDSAVYYCARTDYDGYAMDYWGQGTSVTVSS
VL: DVQITQSPSYLAASPGETITINCRATKSISKYLAWYQEQPGKTNNLLIYSGSTLQSGIPSRFSGSGSGTDFTLTISSLEPEDFAMYYCQQHNEYPYTFGSGTKLEIK
binding to human PMEL17 by FACS [1]: bind
binding to PMEL17 deletion mutants [2]: bound only to PMEL1725-125
binding to PMEL17 deletion mutants ([2]; listed as 17A6): bound only to full-length PMEL17
binding to mouse PMEL17 by FACS [3]: bind
binding to rat PMEL17 by FACS [4]: bind
binding to cynomolgus monkey PMEL17 by FACS [5]: bind
overlap of antibody and LAMP1 staining within the cells ([6]; 2 μg/ml, 2 hours or 20 hours, 37° C.): considerable overlap
uptake into additional PMEL17+ melanoma cell lines ([6]; 526mel, SK-MEL-5, UACC257): Rapid uptake
